Test: label from the status in PepcDB records
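Also: failed if final PepcDB status was selected cloned or expressed and not failed if soluble or beyond.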

Sequence | protein production
MKRKVQVKNITIGEGRPKICVPIIGKNKKDIIKEAKELKDACLDIIEWRVDFFENVENIKEVKEVLYELRSYIHDIPLLFTFRSVVEGGEKLISRDYYTTLNKEISNTGLVDLIDVELFMGDEVIDEVVNFAHKKEVKVIISNHDFNKTPKKEEIVSRLCRMQELGADLPKIAVMPQNEKDVLVLLEATNEMFKIYADRPIITMSMSGMGVISRLCGEIFGSALTFGAAKSVSAPGQISFKELNSVLNLLHKSIN | not failed
MKRKYFPFSAILGQEDLKKALLLNAVNPRIGGVLVRGEKGTAKSTAVRALGALLAAARNGSGGEGEVVVTLPLNATEEMVAGGIDFQQTMKEGRRVFQPGLLAKAHKGILYVDEVNLLDDHLVDIVLDAASSGENRVEREGITLSHPSLFVLAGTMNPEEGELRPQLLDRFGLCVEVRGEADPALRVDLMLRREAFDREPEEFSERYRAEEERLGRTIADAQSLLPSVRIPSHLRGFISELCRNSNVAGHRADLVIEQAARANAALRGSREVSVEDVTKVAGFALVHRRRDPVPPPEQKPQEPERQEEQSRDEQSRQEKPEERGDEPQQPQEGDDRRDGNDDSGNEERSQPENRDAAEQQERPDNEGQDELFSIGQSFRVRSIATPKDRKMRRGSGKRSRSRVSQKQGRYTKSTMPRGNNDIALDATLRAAAPFQRHRENPNGMAVVLQNEDIREKIREKRLGNLLIFVVDASGSMGARGRMAASKGAVMSLLLDAYQKRDKLAMVSFRKNEAFVNLPVTSSIELAARMLKEMPVGGRTPFSAGLLKGYEIAQNYLRKEPGGRPLIILVTDGKANRAIGQGKPLDEVFTISEKISREERIRFLVVDTEEPGLVTFGLAKKIAGLLDAWYYRIDDLRADTLVSIVKTMMP | failed
MKRVALIHGWGGSFAATWEADGWSDALRAAGFDPVGVTIAGHGPEGGSHDPADYADLAGDLAAKLPAGLHGAIGFSLGTKLLLELEARSPGRNGRLVLGGIGDNLFAPEAAGPALVAALRGEATTPPPQVAALLAYAEKSASDPACLAAILERPANPVLTEDRLATAQAPILIFNSRDDAVAQPDTRLCRAMPHASHRLIEGPGHVALTSDARFREAAVEFLSK | failed
MKRVANWLAITGFVVHAISLVAGLQGHTWETISKGYFLQMLSWSMLLIYLFVWWKFKLDFLSALASPFALLIYLSSFKVAEVQSKLPESLSGLFFGLHIGTLFLSFGLMAMAFGAGVLFLHMERKIKTKEPLTGFRKDLPALSTFDRVNRLCVVWGFPLFTLGIVSGFVWAHPAWGKVITWDPKEIVSLAVWVMYALLFHQRVALGWQGRKPAVMVIWIFAVSVFSLIVVNVFMPTHHSFIQQ | failed
MKRYQGRIIATVLAMTFIMFWNFLFYGVLGNKINWTVDLLFTLVTLISVWWLTLYIDESNQLVYKLKESEKKYKELSSETNRIMDNLQEIVFQTDRIGYITFLNQAWTTLTGYSVEESLGTMYNDYFDHEERISNHLIAQLKNKEPEGRIEVLYHRKDGSKFWGEVHYKLYYKNGQFTGSLGTLTDVTERKKAEMELFKSNQRLAMQSQKLAMAGQLAAGIAHEVRNPLTSVNGFLQLMKAEYPDRKDYFDIIFSEIKRIDSVLGELLVLAKPHQVQFKKIKINSVLQQVATLLETNAVLSHIKIEKAFQHGEEWEINGDENQIKQVFINLIKNGIEAMPDGGKITISSKAEGDCVKISIKDEGGGISQADLAKLGEPFFSTKEEGTGLGLTICLNIIGAHNGEMKIDSKLGEGSTFHILLPVDKGAASEENDIQQGCCSRATIK | failed
MKSADQLMSDIQLSLQALFQKIQPEMLESMEKQGVTPAQLFVLASLKKHGSLKVSEIAERMEVKPSAVTLMADRLEQKNLIARTHNTKDRRVIDLSLTDEGDIKFEEVLAGRKAIMARYLSFLTEEEMLQAAHITAKLAQAAETDEKQNMKRGNG | not failed
MKSALSDFILGKKGIYGILHIIILLMSLFLVISISIDTFKGIPFYTQSSYMKIQLWICIWFLFDFVLEFFLAKHKWRYIRTHFIFLLVAIPYQNIIAYYGWTFSPEVTYLLRFIPLLRGGYALAIVVGWLTYNRASSLFVSYLTMLLATVYFASLAFFVLEHKVNPLVTDYGDALWWAFMDVTTVGSNIIAMTTTGRVLSVLLAALGMMMFPIFTVYITNLIQQSNQKKKQYYAEEEEKTASA | failed
MKSDYELSLRDYIAIIKDRALVLGVSAAVILAATVAVALMVPPIYQSTGTILVESQQISPELVSTNNTSFADERIEVIRQRVMTRDNLLRIIGKYDLFADKRFSESDKIDQMRNAIVVETLTTYVRGRGEATVAFNVSFEHKQPQVAKEVADELVTLFLNENLKQRTERANETTEFLTQEANKLGAELASLENQLADFKQAHANALPEHQTLRMNMLSRAELEFREVDRDYKAAQEELRYLELELSAANAGLATKVAEGTRPTRADLPEDLPSLKAEYAQLLTRYKDAHPDVVAVKRKIQALEASGGRTAAVSTVSLDAARVRAKMSAAQVRIASLAEQKRELTRKMEGYEAEILEAPQVERGLVTLMRDHDNARKKYEEIRAKEMGAKITESLEQENKAERFVLLEPPLLPEKPIKPNRKKIAALGLVLAPAGGGALVMLLEMLNQRVRGVGALESLLGKRVLVALPYIDTRADVARRKRWRNRLILAALALAAIMIGLVHVFYMPLDVLL | failed
MKSENVNKRDEYQRVFSCFDKSHQGKVSVSTIERCVDAIKSGKRAVVDQEDTTNPNPEESTDDKSLELEDFVKLVEEGEEADKEKDLKEAFKLYEESEGITPKSLKRMLSLLGESKSLKDCEVMISQFDINRDGIINFDEFRAMMQ | failed
MKSKGRNRLLSLIICICIAFAFSSCVKNDLPYPVVRLSITGFEVNGQIGSAVINNEERTVTVDLLDSVDLKKVIVTRFDYSEEANTDLKVNTTIDLSSPKEVVLSLYQDYRWKIIANQTVERVFSVKNQVGGAVIDEKARQAIVYVNKNTMLNKITVKDLKLGPISSTVSPDFITLKDFTQEQKVNVTFKGKTEEWSLYAFITDKVVFTNSADGWTNVAWLYGEGQEDVVNGFEIREASSEEWTRVDQDIVVQNGVNFYVCVPHLKADTEYVCRALVDGTEDRGEEITFRTTAAIPLTGGTFDNWNQSGKVWNPWGSNETPFWDTGNQGATTLGDSNSVPTEDIWSGKTTGMAAKLESKFVGVGSAGKLAAGNLFVGKYVATDGTNGILNFGQSFSAYPTHLKGYYKYQPGVIDNSSIEYNYLKGRTDTCSIYIAIGDWDSPIEIRTKPSNRKLFDKNDKHVIAYAEFTSGTPVAVYKEFDLKLEYRATNRKPTYIVLVCSASKYGDFFTGASGSVLYVDEFSLEYDYDN | failed
MKSLTPHLLLCSFFTSIAPALGEGFRNKRVAFIPTAAAHEEYTAYVDSARSSWKELGSNITDVDIARMPLRTATEALEQAEIIYLSGGNSFYLLDCLRSTEIDQIIRGRLAEGAILVGESAGAIVCSPNIAYIQPMDRVPDNYSQADYTGLNLVDFFPVPHYLAPPFVKSSKEVVAQHASLPLELMNNAEAVIVEGPQRTKISSEHQ | failed
MKSPFYRCQNTTSVEKGNSAVMGGVLFSTGLLGNLLALGLLARSGLGWCSRRPLRPLPSVFYMLVCGLTVTDLLGKCLLSPVVLAAYAQNRSLRVLAPALDNSLCQAFAFFMSFFGLSSTLQLLAMALECWLSLGHPFFYRRHITLRLGALVAPVVSAFSLAFCALPFMGFGKFVQYCPGTWCFIQMVHEEGSLSVLGYSVLYSSLMALLVLATVLCNLGAMRNLYAMHRRLQRHPRSCTRDCAEPRADGREASPQPLEELDHLLLLALMTVLFTMCSLPVIYRAYYGAFKDVKEKNRTSEEAEDLRALRFLSVISIVDPWIFIIFRSPVFRIFFHKIFIRPLRYRSRCSNSTNMESSL | failed
MKSQFLLSVKEHMLTRYYANKTIESYLFWIKRFIVFHQFAHPSKLSEDDVIRFLSHLAIDEKVAVKTQALALNAISFLYRDFFKTPLSLDMRFQKSLTEKKLPVVLTRDEVRRFV | failed
MKTAELIFVPLPETGHLLSTIEFGKRLLNLDRRISMITILSMNLPYAPHADASLASLTASEPGIRIISLPEIHDPPPIKLLDTSSETYILDFIHKNIPCLRKTIQDLVSSSSSSGGGSSHVAGLILDFFCVGLIDIGREVNLPSYIFMTSNFGFLGVLQYLPERQRLTPSEFDESSGEEELHIPAFVNRVPAKVLPPGVFDKLSYGSLVKIGERLHEAKGILVNSFTQVEPYAAEHFSQGRDYPHVYPVGPVLNLTGRTNPGLASAQYKEMMKWLDEQPDSSVLFLCFGSMGVFPAPQITEIAHALELIGCRFIWAIRTNMAGDGDPQEPLPEGFVDRTMGRGIVCSWAPQVDILAHKATGGFVSHCGWNSVQESLWYGVPIATWPMYAEQQLNAFEMVKELGLAVEIRLDYVADGDRVTLEIVSADEIATAVRSLMDSDNPVRKKVIEKSSVARKAVGDGGSSTVATCNFIKDILGDHF | failed
MKTDIILAGVGGQGILSIAAAIGSAALTNNLYLKQAETHGMSQRGGDVQSFLRLSDAPIYSDLIPIGGADLILSVEPMEALRYLPYLKPDGYVVTNTVPFINIPNYPETTSVISKIESLPHHVLIDADSIARDEVGNVRASNFVMLGAASPFIEIPFDYLAGGIEAIFSRKGQEVVDMNLKALNAGREFALRYAAGK | not failed
MKTFNESNGTNANVLMVGLTLVQAAAAKGAVCLDGSVPGYHLCRGYGSGANNWIIQLQGGAWCDSIQNCQSRKGSGYGSSTLMEKELAFLGLLSNKAAENPDFYNWNKVKVRYCDGASFDGDSENKAAQLQYRGKRIFLAVMEDLMEKGMRQAKQALLSGCSSGGLSAILRCDDFNNLFPPTTTVKCMSDAGFFLDAVDVSGGHSLRRMYSGVVNTQGLQNTLPPTCTSHIKPFLCFFPQYIINQVKTPLFILNSGFDSWQIGNSLAPPSADKSGSWHNCSFSFRCTASQMHFLEGFKMSMLDALKTFSKFSKNGVLITSGWAHCQAERQDTWFPGYSGAGKAKGIAVAVGDWYFERTKQNSS | failed
MKTIAVLLTALLLATGCGNKESTGETASDEPEIVMMDESTSVGELPSILKEGLSNKEQDELKKQIMPILDDGLTPEQRFLNLRKDAEAGNAEAQNSLGSMYFSGEAISRDAQGKVKDKDPETAAGWFFRAAEQGHAGAQFNLGLLYFSGEGVTRDTAKAVELFTKSAEQGNIDAQNNLGVIYLMGEGVKQNTDKAIEWFEKAAEQGNEEAIKNLEAVRASQQDSKEAADKQK | failed
MKTIRSIGRFAVLAAMAALFAGCAGQQVKSEQRFFWPPLPERPRIEWLNAYSSQNDFPKSATEKFLTTIIGEEEGISLSKPITVRSDGRGKVYVGDPGAPGVYVFDFVNNIMRPFGKAEAEARIEQPVGIAIDENGRIYVSDTKKAAIMVFHQDETPAALINLKGMVEKIGDIAYDRIGKHLLALDVRGHKVLVLSLRGELLSSFGNRGTKPGEFNFPSALTVNNKGEIIVADAMNARIQIFSSDGKFLRMFGQRGDSPGTLQLIKGVAVDSDDNIYVTDGKGHKFEIFSTTGDYLLTVGGAFSALTTGKTAPGGFVIPQGIDIDKDNMIYVVDQLNRRFQVFRYISDSYLKANPIPGYTPSP | failed
MKTKAKISSRWLRFRALLIDIFLIYIPILYLFYFLLGSKEAFLNNHFITTLCTFLFGLIQAIFLTKKAQSPGLKAYDLYLIDIKTGKKLSFLRILLRYVIFIISFGLLFGLFVSFVRKDRLNLHDILTQSCIATKSIKKG | failed
MKTKTLNTNRFIKLSLLSAIAVILMYIDFPVIPIFPWLKIDLSDVPALMGAFAFGPLAGVIIELMKNLLILIVKGTGTGFVGELANFLVGVALVWPAALVYKKNKTKKTAILGMVLGVLCIEVVGILANVYLLLPAYGMAMSKAELMQYVTVGLIPFNGIKSILVCGITYALYKKVSVSIFKVEPMLDKPKQMKENLG | failed
MKTLLIAWHSRTGAARQMAQALERGALAAALALEQPGQLRVRRQAASRTDAAALLAADGYLFCAPENLGSLSGAMKECFDRCYYGVLDRIQGRPYGVAISAGTDGEGAARQVERICTGWRLRAAAPPLIARSGAQTPEQIAAPKQVPADVLARCEELGGLLAATLLMGSLEHHHHHH | failed
